Assay results reported in PMC8808172 (The Journal of Biological Chemistry, 2021).

T1: ClpX N-terminal zinc-binding domain (ClpXN; amino acids 1–55) (E. coli, UniProt P0A6H1 1-55)
T1 sequence (looked up): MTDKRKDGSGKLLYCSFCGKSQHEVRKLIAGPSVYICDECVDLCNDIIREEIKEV

B1: ClpX(L12S) (enzyme)
chain: not shown
B2: ClpX (WT) (enzyme)
chain: not shown
B3: ClpX(L13D) (enzyme)
chain: not shown
B4: MqsA_(1–34) (domain or fragment, E. coli, UniProt Q46864 1-34, looked up)
chain: MKCPVCHQGEMVSGIKDIPYTFRGRKTVLKGIHG
B5: Gfp-MqsA_(1–34) (domain or fragment, E. coli, UniProt Q46864 1-34, looked up)
chain: B4 chain
B6: ClpX(H23A) (enzyme)
chain: not shown
B7: ClpX(A30S) (enzyme)
chain: not shown
B8: ClpX(L13A) (enzyme)
chain: not shown

Tests used:
[1] = target: the molecule itself; assay: SEC
[2] = target: T1, ClpX N-terminal zinc-binding domain …; assay: NMR titration
[3] = target: B7; assay: filter retention assay
[4] = target: B2; assay: filter retention assay

Binder | stoichiometry N [1] | also measured
B1 | 6 | 
B2 | 6 | 
B3 | 6 | 
B4 |  | binding result [2]: binds
B5 |  | binding result [3]: binds; binding result [4]: binds
B6 | 6 | 
B7 | 6 | 
B8 | 6 | 
